In US20230165981A1, “[161Tb]-BASED RADIOPEPTIDES” (priority 2021, published 2023):
“And” between values parts separate entries of the source, which are not always exact repeats. Identical values can stand only once. Like-named read-outs stand apart in the source and are kept apart here. Starred links: 1 amine or outer side, 2 acyl side, 3 side chain; linkers in the order of their positions; H or OH if unused. Positions of bridges follow the written chain, without caps; N, C: chain ends. Non-standard residues stand in square brackets, D forms with d. Residues, ends and D or L forms follow the SMILES beside them. *: point of attachment. DOTA = O=C(O)CN1CCN(CC(=O)O)CCN(CC(=O)*)CCN(CC(=O)O)CC1; dPhe(4-NHCONH2) = NC(=O)Nc1ccc(C[C@@H](N)C(=O)O)cc1; X1 = NC(=O)Nc1ccc(CC(N[*:1])C(=O)[*:2])cc1; Phe(4-Cl) = N[CH](Cc1ccc(Cl)cc1)C(=O)O

Key:
[1] = in vivo; details: female, athymic nude (CD-1 Foxn-1nu), mouse, iv, 1 nmol/mouse, total radioactivity
Method: (§1) Five-week-old female, athymic nude mice (CD-1 Foxn-⅟nu) were obtained from Charles River Laboratories (Sulzfeld, Germany). Mice were subcutaneously inoculated with AR42J tumor cells (5 × 10^6 cells in 100 µL PBS) for SPECT/CT imaging, biodistribution and therapy studies. The SPECT/CT and biodistribution studies were performed 10-14 days after tumor cell inoculation when the tumor size reached a volume of ~250 mm^3.
(§2) The mice were sacrificed at 2 h and 24 h post injection (p.i.). Selected tissues and organs were collected, weighed, and the accumulated activity was counted in a γ-counter. The decay-corrected data were listed as the percentage of the injected activity per gram of tissue mass (% IA/g). The data were analyzed for significance using a two-way ANOVA with Tukey’s multiple comparison post-tests. A p-value of <0.05 was considered statistically significant.

[2] = test system: AR42J tumor-bearing mice; details: 2 h p.i., 0.2 nmol/mouse
Method: All applicable international, national, and/or institutional guidelines for the care and use of animals were followed. In particular, all animal experiments were carried out according to the guidelines of Swiss Regulations for Animal Welfare. The preclinical studies were ethically approved by the Cantonal Committee of Animal Experimentation and permitted by the responsible cantonal authorities (license N° 75721 and 79692). Five-week-old female, athymic nude mice (CD-1 Foxn-⅟nu) were obtained from Charles River Laboratories (Sulzfeld, Germany). Mice were subcutaneously inoculated with AR42J tumor cells (5 × 10^6 cells in 100 µL PBS) for SPECT/CT imaging, biodistribution and therapy studies. The SPECT/CT and biodistribution studies were performed 10-14 days after tumor cell inoculation when the tumor size reached a volume of ~250 mm^3.
The mice were sacrificed at 0.5 h, 2 h, 4 h, 24 h and 48 h p.i, selected tissues and organs were collected, weighed, and the accumulated activity was counted using a γ-counter (Perkin Elmer). The decay-corrected data were listed as % IA/g. The data were analyzed for significance using a two-way ANOVA with Tukey’s multiple comparison post-tests. A p-value of <0.05 was considered statistically significant.

[3] = test system: AR42J tumor-bearing mice; details: 24 h p.i., 1 nmol/mouse
Method: as §1, §2

[4] = Assessment of early side effects in therapy mice; details: endpoint of therapy
Method: Early side effects were assessed based on the RBW of each mouse which was monitored every second day. When an endpoint was reached or at the end of the study (after 49 days), relevant organs and tissues were collected, weighed and put into relation to the brain mass and body weight of the respective mouse. This allowed comparison of organ-to-brain and organ-to-body mass weight ratios. In addition, blood plasma parameters from blood collected immediately after euthanasia were measured.
RBW, organ mass and mass ratios at the endpoint: The RBW was monitored every second day. Mice were euthanized when a predefined endpoint criterion was reached or when the study was terminated at Day 49. RBWs, organ masses, organ mass ratios (kidney-to-brain, liver-to-brain and spleen-to-brain) and organ mass to body weight ratios (kidney-to-body mass, liver-to-body mass and spleen-to-body mass) were analyzed for significance using a one-way ANOVA test with a Tukey’s multiple comparisons post-test. A p-value of <0.05 was considered as statistically significant.
Blood plasma chemistry: Immediately before euthanasia of the mice that reached the endpoint, blood was sampled from the retrobulbar vein. The values of creatinine (CRE), blood urea nitrogen (BUN), alkaline phosphatase (ALP), total bilirubin (TBIL) and albumin (ALB) were determined in the plasma after centrifugation of the blood using a dry chemistry analyzer (DRI-CHEM 4000i, FUJIFILM, Japan). The average blood plasma parameters of each group were analyzed for significance using a one-way ANOVA test with a Tukey’s multiple comparisons post-test. A p-value of <0.05 was considered as statistically significant.

[5] = n-octanol/PBS distribution coefficient (logD), shake-flask method; format: physicochemical; details: n-octanol/PBS pH 7.4; read-out: LogD
Method: An aliquot of the radiolabeled peptide (0.5 MBq, 25 µL) was added to a mixture of 1475 µL PBS pH 7.4 and 1500 µL n-octanol. The respective tubes were vortexed for 60 sec and centrifuged for 6 min at 2500 rpm followed by the measurement of the activity concentration in a defined volume of each layer using a γ-counter (Perkin Elmer, Wallac Wizard 1480). The logD values were calculated as the logarithm of the ratio of counts per minute (cpm) measured in the n-octanol phase relative to the cpm measured in the PBS pH 7.4 phase. The experiments were performed three times with five replicates for each radiopeptide and the logD value was expressed as the average ± standard deviation (SD) of the values obtained in each experiment. […] A p value <0.05 was considered statistically significant.

[6] = test system: AR42J tumor-bearing mice; experiment: Biodistribution: optimum injected molar amount; details: 2 h p.i.

SMILES: CC(O)C1NC(=O)C(CCCCN)NC(=O)C(Cc2ccc(NC(N)=O)cc2)NC(=O)C(Cc2ccc(O)cc2)NC(=O)C(NC(=O)C(Cc2ccc(Cl)cc2)NC(=O)CN2CCN(CC(=O)O)CCN(CC(=O)O)CCN(CC(=O)O)CC2)CSSCC(C(=O)NC(Cc2ccc(O)cc2)C(N)=O)NC1=O (stereo not shown) [metal not drawn] ({DOTA}-[Phe(4-Cl)]CY[X1]KTCY-NH2; disulfide 2-7; configuration not given here)
- tissue uptake at 2 h ([1]; femur): 0.2 ± 0.05 %ID/g
- tissue uptake at 2 h ([1]; kidneys): 12 ± 2 %ID/g
- tissue uptake at 2 h ([1]; lung): 1 ± 0.2 %ID/g
- tissue uptake at 24 h ([1]; spleen): 0.13 ± 0.03 %ID/g
- Biodistribution: Muscle [2]: ≤0.10 % IA/g
- Biodistribution: Spleen [2]: 0.41 ± 0.08 % IA/g
- Tumor-to-liver [3]: 63 ± 18
- ALB (albumin) [4]: 22 ± 1 g/L
- ALP (alkaline phosphatase) [4]: 65 ± 15 U/L
- BUN (blood urea nitrogen) [4]: 9.1 ± 1.5 mmol/L
- CRE (plasma creatinine) [4]: <18 (n=5) 18 (n=1) µmol/L
- TBIL (total bilirubin) [4]: <3 (n=5) 3 (n=1) µmol/L

SMILES: C[C@@H](O)[C@@H]1NC(=O)[C@H](CCCCN)NC(=O)[C@@H](Cc2ccc(NC(N)=O)cc2)NC(=O)[C@H](Cc2ccc(O)cc2)NC(=O)[C@H](NC(=O)[C@H](Cc2ccc(Cl)cc2)NC(=O)CN2CCN(CC(=O)O)CCN(CC(=O)O)CCN(CC(=O)O)CC2)CSSC[C@@H](C(=O)N[C@H](Cc2ccc(O)cc2)C(N)=O)NC1=O [metal not drawn] ({DOTA}-[Phe(4-Cl)][dC]Y[dPhe(4-NHCONH2)]KTC[dY]-NH2; disulfide 2-7)
- tissue uptake at 24 h ([1]; intestines): 0.14 ± 0.03 %ID/g
- tissue uptake at 2 h ([1]; kidneys): 11 ± 1 %ID/g
- LogD [5]: -2.5 ± 0.1
- Tu-to-adr (tumor-to-adrenals) ([6]; 0.040 nmol/mouse): 11 ±4
- Tu-to-blood ([6]; 0.040 nmol/mouse): 289 ± 45
- Tu-to-kidney ([6]; 0.040 nmol/mouse): 4.3 ± 1.2
- Tu-to-adr (tumor-to-adrenals) ([6]; 0.20 nmol/mouse): 34 ± 9.2
- Tu-to-blood ([6]; 0.20 nmol/mouse): 492 ± 102
- Tu-to-kidney ([6]; 0.20 nmol/mouse): 4.3 ± 0.4
- Tu-to-liver ([6]; 0.20 nmol/mouse): 90 ± 11
- Biodistribution: Blood ([6]; 1.0 nmol/mouse): ≤0.10 % IA/g
- Biodistribution: Heart ([6]; 1.0 nmol/mouse): ≤0.10 % IA/g
- Biodistribution: Muscle ([6]; 1.0 nmol/mouse): ≤0.10 % IA/g
- Tu-to-adr (tumor-to-adrenals) ([6]; 1.0 nmol/mouse): 36 ± 6
- ALB (albumin) [4]: 23 ± 1 g/L
- ALP (alkaline phosphatase) [4]: 66 ± 5 U/L
- BUN (blood urea nitrogen) [4]: 8.2 ± 1.9 mmol/L and 8.2 ± 1.8 mmol/L
- CRE (plasma creatinine) [4]: <18 (n=5) µmol/L and 19 (n=1) µmol/L
- TBIL (total bilirubin) [4]: <3 (n=4) µmol/L and 4 ± 1 (n=2) µmol/L
